Measured values published in US20190106494A1 (published 2019).

Target: PD-L1 (soluble; 'PD-L1 ligand' of the Octet assay) (UniProt Q9NZQ7 19-238, limits assumed)
Experiment: BLI (Octet RED 96), antibody on anti-human IgG capture sensor, PD-L1 in solution, 1:1 fit
Experimental: Affinity Measurement: The affinity measurement was conducted with Octet RED 96 (ForteBio) instrument at 30 degree Celsius. Briefly, anti-human IgG capture sensor (AHC from ForteBio cat #18-5060) was equilibrated with assay buffer (1× dilution of 10× Kinetics Buffer (ForteBio, Cat #18-5032). Test antibody samples were diluted to 3 ug/mL and allowed to bind to the sensors for 5 min. The sensors were then washed in assay buffer for 3 minutes, and PD-L1 ligand diluted at different concentrations were allowed to bind to the mAb coated on the sensors for 5 minutes. Afterwards, dissociation was followed for 10 minutes in the assay buffer. The sensors could be regenerated by washing in glycine buffer and assay buffer 3 times. The data were fitted with 1:1 binding model using the ForteBio software.

Sequence of PD-L1 (soluble; 'PD-L1 ligand' of the Octet assay) (Q9NZQ7 19-238 limits assumed): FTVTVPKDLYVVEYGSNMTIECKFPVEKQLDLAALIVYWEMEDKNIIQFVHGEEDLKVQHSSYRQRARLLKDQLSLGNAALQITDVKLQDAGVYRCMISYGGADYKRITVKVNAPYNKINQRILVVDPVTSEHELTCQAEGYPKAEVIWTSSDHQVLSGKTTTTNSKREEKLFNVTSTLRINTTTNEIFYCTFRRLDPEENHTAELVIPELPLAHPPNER

Kd: 0.162 nM
koff: 6.2e-05 s⁻¹
kon: 769000 M⁻¹ s⁻¹
B1: 111F1 chimeric anti-PD-L1 antibody (antibody, V domains shown)
VH: CQSVKESEGGLFKPTDTLTLTCTVSGIDLNSIAISWVRQAPGNGLEWIGTIGSSGSAYYASWAKSRSTITRNTSENTVTLEMTSLTAADTATYFCAKEILYYGMDLWGPGTLVTVSS
VL: DPVMTQTPASVSEPVGGTVTINCQASQSISSYLAWYQQKPGQRPKLLIYAASNVEPGVPSRFRGRGSGTQFTLTISDLECDDAATYYCQSTYGSTGGGDYGNAFGGGTKVVVVR
